“Also recorded” adds a separate entry of the source.
What was measured:
[1] = tested on: NSC34 cells; assay: Plasmin activity in cytoplasm and nucleus of okadaic acid-treated NSC34 cells (enzyme substrate kinetic method, S-2251); format: cell-based; settings: plasminogen 0.5 mg/mL 24 hours, vs vehicle group
Protocol: The cells were placed in a carbon dioxide incubator for culture at 37.0° C. and 5% CO2. […] After adding plasminogen for 24 hours, the cells were harvested. […] The supernatant is the extracted cytoplasmic protein, and the supernatant is immediately sucked up into a pre-cooled sample tube for later use. The precipitate is the cell nucleus, and the remaining supernatant was completely aspirated (to avoid contamination by cytoplasmic proteins), then adding 50-100 μL of nuclear protein extraction reagent. The precipitate is completely dispersed by pipette blow or high-speed vortex for 15 seconds (can be extended appropriately), then ice-bathing for 10 minutes, vortexing vigorously at maximum speed for 10 seconds and centrifuging at 12,000-16,000 g for 10 minutes at 4° C. The supernatant was immediately sucked up by pipette into a pre-cooled sample tube; this is the extracted nuclear protein.

[2] = Blood plasminogen level in MPTP Parkinson's model mice (ELISA); format: in vivo, mouse; settings: 50 mg/kg tail vein
Protocol: Eighteen 6-week-age male C57BL/6J mice were injected intraperitoneally with 1-methyl-4-phenyl-1,2,3,6-tetrahydropyridine (MPTP) solution at a dose of 35 mg/kg/mouse for 5 consecutive days to establish a Parkinson's model [7]. […] The mice were randomly divided into two groups according to their body weight: 6 mice in vehicle group, 12 mice in plasminogen group; and administration was begun to record as day 1. The mice in the plasminogen group were injected with 50 mg/kg body weight of plasminogen solution by tail vein, and the mice in the vehicle group were injected with 5 mL/kg body weight of vehicle solution (10 mM citric acid-sodium citrate solution, pH 7.4) by tail vein. Three mice in the vehicle group were killed respectively 2 and 24 hours after administration, and their blood was collected. Three mice in the plasminogen group were killed 2, 6, 12, and 24 hours after administration, and their blood was collected. After the blood was centrifuged (3500 rpm, 10 min, 4° C.), the supernatant was taken to detect according to the instructions of Human Plasminogen ELISA Kit (manufacturer: AssayMax, catalog number: EP1200-1). The concentration of each sample was calibrated by using human plasminogen working standard as the internal standard. […]

[3] = Brain tissue plasminogen level in MPTP Parkinson's model mice (ELISA); format: in vivo, mouse; settings: 50 mg/kg tail vein
[4] = molecular target: T1, TDP-43 (Mus musculus, UniProt Q921F2); assay: Immunofluorescence co-localization staining of plasminogen and TDP-43 in gluteal muscle tissue of SOD1-G93A mice; format: in vivo; parameters: from tissue; host or cells: mouse spinal cord, gluteal muscle, brain, kidney cell nuclei; settings: 1 mg/mouse tail vein every day
T1 sequence (Q921F2 whole entry): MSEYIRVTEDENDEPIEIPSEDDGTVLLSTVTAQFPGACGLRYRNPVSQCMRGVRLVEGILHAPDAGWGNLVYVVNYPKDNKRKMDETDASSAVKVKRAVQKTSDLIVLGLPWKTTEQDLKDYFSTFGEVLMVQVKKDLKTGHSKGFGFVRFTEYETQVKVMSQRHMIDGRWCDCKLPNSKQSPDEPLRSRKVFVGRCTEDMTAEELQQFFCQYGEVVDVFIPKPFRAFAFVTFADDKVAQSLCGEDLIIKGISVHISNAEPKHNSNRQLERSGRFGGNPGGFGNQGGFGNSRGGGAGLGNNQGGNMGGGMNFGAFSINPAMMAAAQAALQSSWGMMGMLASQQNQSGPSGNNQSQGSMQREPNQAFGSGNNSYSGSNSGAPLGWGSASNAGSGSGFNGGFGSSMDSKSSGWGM
Protocol: Five wild-type male mice and nine male SOD1-G93A mice of similar week-age were selected. Wild-type mice served as the blank control group, and SOD1-G93A mice were observed and recorded from the time of hind leg tremor when they became ill at week 14, and the onset time of each mouse was recorded. Administering to mice 14 days after the onset of the disease. All mice were randomly divided into a vehicle group and a plasminogen administration group according to the onset of the disease: 5 mice in the vehicle group, which were injected with 0.1 ml of vehicle (sodium citrate buffer)/mouse by tail vein every day; 4 mice in the plasminogen administration group, which were injected with 1 mg of plasminogen/0.1 ml of vehicle/mouse by tail vein every day. The vehicle and plasminogen were administered continuously under SPF environment, and the samples were collected at the near-death stage. The longest administration was 61 days. The gluteal muscle tissue collected was fixed in formalin fixative solution. The fixed tissues were dehydrated with gradient alcohol and transparentized with xylene before being embedded in paraffin. The thickness of tissue sections was 3 μm, and the sections were dewaxed and rehydrated and then washed once. The sections were immersed in antigen retrieval working solution (0.01 M sodium citrate buffer) to perform microwave retrieval: preheating for 5 minutes, high heating for 2 minutes, and low heating for 15 minutes. […] The green fluorescence color development of the corresponding anti-plasminogen secondary antibody was performed according to the instructions of the XTSA520 IHC kit (Alpha X Biotech, AXT6202500), washing 3 times with PBS for 5 minutes each time. […] The red fluorescence color development of the corresponding anti-TDP-43 secondary antibody was performed according to the instructions of the XTSA620 IHC kit (Alpha X Biotech, AXT6502500), washing 3 times with PBS for 5 minutes each time. […]

[5] = molecular target: T1, TDP-43; assay: TDP-43 in nuclei of renal cells of SOD1-G93A mice (Western blot); format: in vivo; parameters: from tissue; host or cells: mouse spinal cord, gluteal muscle, brain, kidney cell nuclei; settings: 50 mg/kg tail vein every day, 7 days, vs vehicle group, P<0.05
Protocol: SOD1-G93A mice (Jackson Laboratory, Stock Number: 004435) and C57BL/6J mice aged 9-10 weeks were selected. SOD1-G93A mice were randomly divided into two groups, vehicle group and plasminogen group, and C57BL/6J mice were used as normal control group, with 3 mice in each group. […] No treatment was administered to the normal control mice. The mice were killed after 7 days, and kidney tissues were obtained. The sampled kidney tissue was placed in pre-cooled RPMI-1640 (Sigma-Aldrich) culture medium on ice. After rinsing with PBS, the kidney tissue was cut into small pieces and then incubated with 0.25% trypsin for digestion at 37° C. for 10 min, shaking every 2 min. Digestion was terminated by adding DMEM medium containing 10% fetal newborn calf serum. After centrifugation (1500 rpm, 5 minutes), the supernatant was removed to obtain a single cell pellet. […] The precipitate is the cell nucleus. […] The extracted nuclear protein was tested by western blot for TDP-43.

B1: plasminogen: human plasminogen purified from human donor plasma, in which human Lys-plasminogen and Glu-plasminogen are >98% (protein)
chain: KVYLSECKTGNGKNYRGTMSKTKNGITCQKWSSTSPHRPRFSPATHPSEGLEENYCRNPDNDPQGPWCYTTDPEKRYDYCDILECEEECMHCSGENYDGKISKTMSGLECQAWDSQSPHAHGYIPSKFPNKNLKKNYCRNPDRELRPWCFTTDPNKRWELCDIPRCTTPPPSSGPTYQCLKGTGENYRGNVAVTVSGHTCQHWSAQTPHTHNRTPENFPCKNLDENYCRNPDGKRAPWCHTTNSQVRWEYCKIPSCDSSPVSTEQLAPTAPPELTPVVQDCYHGDGQSYRGTSSTTTTGKKCQSWSSMTPHRHQKTPENYPNAGLTMNYCRNPDADKGPWCFTTDPSVRWEYCNLKKCSGTEASVVAPPPVVLLPDVETPSEEDCMFGNGKGYRGKRATTVTGTPCQDWAAQEPHRHSIFTPETNPRAGLEKNYCRNPDGDVGGPWCYTTNPRKLYDYCDVPQCAAPSFDCGKPQVEPKKCPGRVVGGCVAHPHSWPWQVSLRTRFGMHFCGGTLISPEWVLTAAHCLEKSPRPSSYKVILGAHQEVNLEPHVQEIEVSRLFLEPTRKDIALLKLSSPAVITDKVIPACLPSPNYVVADRTECFITGWGETQGTFGAGLLKEAQLPVIENKVCNRYEFLNGRVQSTELCAGHLAGGTDSCQGDSGGPLVCFEKDKYILQGVTSWGLGCARPNKPGVYVRVSRFVTWIEGVMRNN
level of plasmin activity in the cytoplasm [1]: significantly higher | level of plasmin activity in the nucleus [1]: significantly higher | time within which plasminogen is almost completely metabolized (blood) [2]: 12 to 24 h | plasminogen level in the blood ([2]; vs vehicle group): significantly higher | time within which plasminogen is almost completely metabolized (brain tissue) [3]: 12 to 24 h | plasminogen level in the brain tissue ([3]; vs vehicle group): significantly higher | co-localization of plasminogen with TDP-43 in muscle tissue (cytoplasm and nucleus) [4]: co-localizes with TDP-43 | subcellular presence of plasminogen in muscle tissue [4]: present in the cytoplasm (as indicated by Δ) and in the nucleus; also recorded: present in the cytoplasm (as indicated by Δ) and the nucleus | positive staining of plasminogen in muscle tissue ([4]; up to 61 days, vs vehicle group): significantly more | level of TDP-43 in renal cell nuclei [5]: significantly lower

Source: patent US20260166131A1, “METHOD FOR PROMOTING PATHOLOGICAL TDP-43 PROTEIN DEGRADATION, AND DRUG” (TALENGEN INTERNATIONAL LIMITED, priority 2022, published 2026)
